Legend:
[1] = target: T1, human PCSK9 (proprotein convertase subtilisin kexin type 9) (human, UniProt Q8NBP7 31-692, biotinylated in the BLI assay (site not stated)); assay: ITC, 37 C
T1 construct: Immobilized directly (SPR), biotinylated on streptavidin tips (BLI), recombinant from baculovirus (FRET); also called hPCSK9

[2] = target: T1, human PCSK9 (proprotein convertase …); assay: ITC, 37 C, average of 3 experiments
Experimental: Solution phase binding was measured in 25 mM HEPES, pH 7.41, 150 mM NaCl at 37° C.

T1 sequence (Q8NBP7 31-692 limits assumed): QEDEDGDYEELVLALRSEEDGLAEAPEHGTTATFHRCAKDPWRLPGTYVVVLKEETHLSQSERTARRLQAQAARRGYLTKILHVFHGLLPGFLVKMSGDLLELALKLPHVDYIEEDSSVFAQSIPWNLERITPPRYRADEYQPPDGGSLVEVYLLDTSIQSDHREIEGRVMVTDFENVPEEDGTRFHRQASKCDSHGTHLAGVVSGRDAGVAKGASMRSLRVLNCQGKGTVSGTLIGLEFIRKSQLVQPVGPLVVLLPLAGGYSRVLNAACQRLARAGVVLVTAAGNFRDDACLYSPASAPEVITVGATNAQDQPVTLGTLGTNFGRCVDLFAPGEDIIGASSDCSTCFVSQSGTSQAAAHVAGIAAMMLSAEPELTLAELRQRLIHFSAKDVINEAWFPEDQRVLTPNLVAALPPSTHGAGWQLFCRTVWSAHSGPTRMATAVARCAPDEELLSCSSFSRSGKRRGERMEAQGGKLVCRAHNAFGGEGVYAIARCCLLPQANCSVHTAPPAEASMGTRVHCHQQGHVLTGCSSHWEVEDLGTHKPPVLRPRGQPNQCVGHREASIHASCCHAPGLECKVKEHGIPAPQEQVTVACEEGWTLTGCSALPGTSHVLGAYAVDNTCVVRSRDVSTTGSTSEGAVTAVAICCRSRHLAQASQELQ

| ΔS [1] [cal/mol ° C.] | ΔS [2] [cal/mol ° C.] | Binder |
| --- | --- | --- |
| -45.4 |  | anti-PCSK9 Adnectin 2013E01 (designed binder, also called ATI001081) MGVSDVPRDLEVVAATPTSLLISWVPPSDDYGYYRITYGETGGNSPVQEFTVPIGKGTATISGLKPGVDYTITVYAVEFPWPHAGYYHRPISINYRTEIDKPSQHHHHHH |
|  | -55.8 | ATI001174 [2013E01-non His tagged Cys mut], pegylated (designed binder, pegylated via the cysteine of the EIEKPCQ tail (asterisk in Table 5), PEGylated, non His tagged cysteine mutant of 2013E01; also called ATI1174) MGVSDVPRDLEVVAATPTSLLISWVPPSDDYGYYRITYGETGGNSPVQEFTVPIGKGTATISGLKPGVDYTITVYAVEFPWPHAGYYHRPISINYRTEIEKPCQ |

— patent publication US20240239870A1 (published 2024)
